Data on 9 molecules can be found in US20200199241A1 (Chugai, published 2020).

This experiment addresses T1, soluble human FcRn complexed with β2-microglobulin (human, UniProt P61769 21-119, limits assumed).
T1 construct: also called hFcRn
Nature of the experiment: Biacore SPR, pH 7.0.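 Also: test antibodies captured on a Protein L chip with human FcRn flowed over as analyte, KD obtained as the ratio of dissociation to association rate constants.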 A general note: Surface plasmon resonance follows binding to a sensor surface in real time, without labels.

T1 sequence (chain, as listed by the source limits assumed, chain 1 of 2): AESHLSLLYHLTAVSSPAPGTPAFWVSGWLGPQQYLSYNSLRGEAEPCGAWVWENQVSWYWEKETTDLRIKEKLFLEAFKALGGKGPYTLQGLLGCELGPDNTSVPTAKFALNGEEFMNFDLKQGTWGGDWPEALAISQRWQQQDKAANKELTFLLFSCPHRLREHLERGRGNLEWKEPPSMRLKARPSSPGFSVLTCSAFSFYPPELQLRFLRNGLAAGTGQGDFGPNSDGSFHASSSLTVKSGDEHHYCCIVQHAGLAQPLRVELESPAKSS
T1 sequence (P61769 21-119 limits assumed, chain 2 of 2): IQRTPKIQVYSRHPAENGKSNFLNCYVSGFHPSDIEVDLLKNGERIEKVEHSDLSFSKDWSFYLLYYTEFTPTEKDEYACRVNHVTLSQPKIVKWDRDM
Protocol: A kinetic analysis of binding between human FcRn and the aforementioned antibodies was carried out using the BIACORE™ T100 or T200 surface plasmon resonance system (GE Healthcare). The antibodies being tested were captured on the CM4 Sensor Chip (GE Healthcare) on which a suitable amount of Protein L (ACTIGEN® protein (Alltech)) was suitably immobilized by amine coupling. Next, diluted human FcRn and a running buffer used as a blank were injected to allow the human FcRn to interact with the antibody captured on the sensor chip. A buffer consisting of 50 mmol/L sodium phosphate, 150 mmol/L NaCl and 0.05% (w/v) polysorbate 20 (Tween 20®) (pH 7.0 or pH 7.4) was used for the running buffer, and each buffer was also used to dilute the human FcRn. 10 mmol/L glycine-HCl (pH 1.5) was used to regenerate the sensor chip. All measurements of binding were carried out at 25° C. The KD(M) of each antibody to human FcRn was calculated based on kinetics parameters, i.e., the association rate constant ka (1/Ms) and the dissociation rate constant kd (1/s) calculated from a sensorgram obtained by the measurement. The BIACORE™ T100 or T200 Evaluation Software (GE Healthcare) was used to calculate each parameter.

B1: IgG1-F771 (antibody)
heavy: QVQLQESGPGLVKPSETLSLTCAVSGHSISHDHAWSWVRQPPGEGLEWIGFISYSGITNYNPSLQGRVTISRDNSKNTLYLQMNSLRAEDTAVYYCARSLARTTAMDYWGEGTLVTVSSASTKGPSVFPLAPSSKSTSGGTAALGCLVKDYFPEPVTVSWNSGALTSGVHTFPAVLQSSGLYSLSSVVTVPSSSLGTQTYICNVNHKPSNTKVDKKVEPKSCDKTHTCPPCPAPELLGGPSVFLFPPKPKDTLYISRTPEVTCVVVDVSHEDPAVKFNWYVDGVEVHNAKTKPREEQYNSTYRVVSVLTVLHQDWLNGKEYKCKVSNKALPAPIEKTISKAKGQPREPQVYTLPPSRDELTKNQVSLTCLVKGFYPSDIAVEWESNGQPENNYKTTPPVLDSDGSFFLYSKLTVDKSRWQQGNVFSCSVMHEALHYHYTQKSLSLSP
light: not shown
notes: EU numbering; copies: 2 + 2
With B1, binding was put at a Kd of 400 nM.

B2: IgG1-F777 (antibody)
heavy: QVQLQESGPGLVKPSETLSLTCAVSGHSISHDHAWSWVRQPPGEGLEWIGFISYSGITNYNPSLQGRVTISRDNSKNTLYLQMNSLRAEDTAVYYCARSLARTTAMDYWGEGTLVTVSSASTKGPSVFPLAPSSKSTSGGTAALGCLVKDYFPEPVTVSWNSGALTSGVHTFPAVLQSSGLYSLSSVVTVPSSSLGTQTYICNVNHKPSNTKVDKKVEPKSCDKTHTCPPCPAPELLGGPSVFLFPPKPKDTLYISRTPEVTCVVVDVSHEDPEVKFNWYVDGVEVHNAKTKPREEQYNSTYRVVSVLTVLHQDWLNGKEYKCKVSNKALPAPIEKTISKAKGQPRAPQVYTLPPSRDELTKNQVSLTCLVKGFYPSDIAVEWESNGQPENNYKTTPPVLDSDGSFFLYSKLTVDKSRWQQGNVFSCSVMHEALHYHYTQKSLSLSP
light: not shown
notes: EU numbering
In the case of B2, the affinity, expressed as Kd, was 390 nM.

B3: IgG1-F773 (antibody)
heavy: QVQLQESGPGLVKPSETLSLTCAVSGHSISHDHAWSWVRQPPGEGLEWIGFISYSGITNYNPSLQGRVTISRDNSKNTLYLQMNSLRAEDTAVYYCARSLARTTAMDYWGEGTLVTVSSASTKGPSVFPLAPSSKSTSGGTAALGCLVKDYFPEPVTVSWNSGALTSGVHTFPAVLQSSGLYSLSSVVTVPSSSLGTQTYICNVNHKPSNTKVDKKVEPKSCDKTHTCPPCPAPELLGGPSVFLFPPKPKDTLYISRTPEVTCVVVDVSHEDPEVKFNWYVDGAEVHNAKTKPREEQYNSTYRVVSVLTVLHQDWLNGKEYKCKVSNKALPAPIEKTISKAKGQPREPQVYTLPPSRDELTKNQVSLTCLVKGFYPSDIAVEWESNGQPENNYKTTPPVLDSDGSFFLYSKLTVDKSRWQQGNVFSCSVMHEALHYHYTQKSLSLSP
light: not shown
notes: EU numbering; copies: 2 + 2
As to B3, the equilibrium dissociation constant (Kd) – broadly, the concentration at which binding is half-saturated – was 390 nM.

B4: IgG1-F772 (antibody)
heavy: QVQLQESGPGLVKPSETLSLTCAVSGHSISHDHAWSWVRQPPGEGLEWIGFISYSGITNYNPSLQGRVTISRDNSKNTLYLQMNSLRAEDTAVYYCARSLARTTAMDYWGEGTLVTVSSASTKGPSVFPLAPSSKSTSGGTAALGCLVKDYFPEPVTVSWNSGALTSGVHTFPAVLQSSGLYSLSSVVTVPSSSLGTQTYICNVNHKPSNTKVDKKVEPKSCDKTHTCPPCPAPELLGGPSVFLFPPKPKDTLYISRTPEVTCVVVDVSHEDPEVAFNWYVDGVEVHNAKTKPREEQYNSTYRVVSVLTVLHQDWLNGKEYKCKVSNKALPAPIEKTISKAKGQPREPQVYTLPPSRDELTKNQVSLTCLVKGFYPSDIAVEWESNGQPENNYKTTPPVLDSDGSFFLYSKLTVDKSRWQQGNVFSCSVMHEALHYHYTQKSLSLSP
light: not shown
notes: EU numbering; copies: 2 + 2
B4 showed a Kd of 380 nM.

B5: IgG1-F775 (antibody)
heavy: QVQLQESGPGLVKPSETLSLTCAVSGHSISHDHAWSWVRQPPGEGLEWIGFISYSGITNYNPSLQGRVTISRDNSKNTLYLQMNSLRAEDTAVYYCARSLARTTAMDYWGEGTLVTVSSASTKGPSVFPLAPSSKSTSGGTAALGCLVKDYFPEPVTVSWNSGALTSGVHTFPAVLQSSGLYSLSSVVTVPSSSLGTQTYICNVNHKPSNTKVDKKVEPKSCDKTHTCPPCPAPELLGGPSVFLFPPKPKDTLYISRTPEVTCVVVDVSHEDPEVKFNWYVDGVEVHNAKTKPREEQYNSTYRVVSVLTVLHQDWLNGKEYKCKVSNKALPAPIEKTISAAKGQPREPQVYTLPPSRDELTKNQVSLTCLVKGFYPSDIAVEWESNGQPENNYKTTPPVLDSDGSFFLYSKLTVDKSRWQQGNVFSCSVMHEALHYHYTQKSLSLSP
light: not shown
notes: EU numbering; copies: 2 + 2
Turning to B5, the Kd turned out to be 620 nM.

B6: IgG1-F779 (antibody)
heavy: QVQLQESGPGLVKPSETLSLTCAVSGHSISHDHAWSWVRQPPGEGLEWIGFISYSGITNYNPSLQGRVTISRDNSKNTLYLQMNSLRAEDTAVYYCARSLARTTAMDYWGEGTLVTVSSASTKGPSVFPLAPSSKSTSGGTAALGCLVKDYFPEPVTVSWNSGALTSGVHTFPAVLQSSGLYSLSSVVTVPSSSLGTQTYICNVNHKPSNTKVDKKVEPKSCDKTHTCPPCPAPELLGGPSVFLFPPKPKDTLYISRTPEVTCVVVDVSHEDPEVKFNWYVDGVEVHNAKTKPREEQYNSTYRVVSVLTVLHQDWLNGKEYKCKVSNKALPAPIEKTISKAKGQPREPQVYTLPPSRDELTKAQVSLTCLVKGFYPSDIAVEWESNGQPENNYKTTPPVLDSDGSFFLYSKLTVDKSRWQQGNVFSCSVMHEALHYHYTQKSLSLSP
light: not shown
notes: EU numbering; copies: 2 + 2
B6 displayed a dissociation constant Kd of 390 nM.

B7: IgG1-F776 (antibody)
heavy: QVQLQESGPGLVKPSETLSLTCAVSGHSISHDHAWSWVRQPPGEGLEWIGFISYSGITNYNPSLQGRVTISRDNSKNTLYLQMNSLRAEDTAVYYCARSLARTTAMDYWGEGTLVTVSSASTKGPSVFPLAPSSKSTSGGTAALGCLVKDYFPEPVTVSWNSGALTSGVHTFPAVLQSSGLYSLSSVVTVPSSSLGTQTYICNVNHKPSNTKVDKKVEPKSCDKTHTCPPCPAPELLGGPSVFLFPPKPKDTLYISRTPEVTCVVVDVSHEDPEVKFNWYVDGVEVHNAKTKPREEQYNSTYRVVSVLTVLHQDWLNGKEYKCKVSNKALPAPIEKTISKAAGQPREPQVYTLPPSRDELTKNQVSLTCLVKGFYPSDIAVEWESNGQPENNYKTTPPVLDSDGSFFLYSKLTVDKSRWQQGNVFSCSVMHEALHYHYTQKSLSLSP
light: not shown
notes: EU numbering; copies: 2 + 2
B7 displayed an equilibrium dissociation constant (Kd) of 390 nM.

B8: IgG1-F780 (antibody)
heavy: QVQLQESGPGLVKPSETLSLTCAVSGHSISHDHAWSWVRQPPGEGLEWIGFISYSGITNYNPSLQGRVTISRDNSKNTLYLQMNSLRAEDTAVYYCARSLARTTAMDYWGEGTLVTVSSASTKGPSVFPLAPSSKSTSGGTAALGCLVKDYFPEPVTVSWNSGALTSGVHTFPAVLQSSGLYSLSSVVTVPSSSLGTQTYICNVNHKPSNTKVDKKVEPKSCDKTHTCPPCPAPELLGGPSVFLFPPKPKDTLYISRTPEVTCVVVDVSHEDPEVKFNWYVDGVEVHNAKTKPREEQYNSTYRVVSVLTVLHQDWLNGKEYKCKVSNKALPAPIEKTISKAKGQPREPQVYTLPPSRDELTKNAVSLTCLVKGFYPSDIAVEWESNGQPENNYKTTPPVLDSDGSFFLYSKLTVDKSRWQQGNVFSCSVMHEALHYHYTQKSLSLSP
light: not shown
notes: EU numbering; copies: 2 + 2
In turn, B8 came in with a dissociation constant Kd of 390 nM.

B9: IgG1-F774 (antibody)
heavy: QVQLQESGPGLVKPSETLSLTCAVSGHSISHDHAWSWVRQPPGEGLEWIGFISYSGITNYNPSLQGRVTISRDNSKNTLYLQMNSLRAEDTAVYYCARSLARTTAMDYWGEGTLVTVSSASTKGPSVFPLAPSSKSTSGGTAALGCLVKDYFPEPVTVSWNSGALTSGVHTFPAVLQSSGLYSLSSVVTVPSSSLGTQTYICNVNHKPSNTKVDKKVEPKSCDKTHTCPPCPAPELLGGPSVFLFPPKPKDTLYISRTPEVTCVVVDVSHEDPEVKFNWYVDGVEVHAAKTKPREEQYNSTYRVVSVLTVLHQDWLNGKEYKCKVSNKALPAPIEKTISKAKGQPREPQVYTLPPSRDELTKNQVSLTCLVKGFYPSDIAVEWESNGQPENNYKTTPPVLDSDGSFFLYSKLTVDKSRWQQGNVFSCSVMHEALHYHYTQKSLSLSP
light: not shown
notes: EU numbering; copies: 2 + 2
In the case of B9, the equilibrium dissociation constant (Kd) was 400 nM.
